According to PMC3267324 (Molecular Cell, 2011):

T1: GST-tagged full-length PARI (human, UniProt Q9NWS1 1-579)
T1 sequence (looked up): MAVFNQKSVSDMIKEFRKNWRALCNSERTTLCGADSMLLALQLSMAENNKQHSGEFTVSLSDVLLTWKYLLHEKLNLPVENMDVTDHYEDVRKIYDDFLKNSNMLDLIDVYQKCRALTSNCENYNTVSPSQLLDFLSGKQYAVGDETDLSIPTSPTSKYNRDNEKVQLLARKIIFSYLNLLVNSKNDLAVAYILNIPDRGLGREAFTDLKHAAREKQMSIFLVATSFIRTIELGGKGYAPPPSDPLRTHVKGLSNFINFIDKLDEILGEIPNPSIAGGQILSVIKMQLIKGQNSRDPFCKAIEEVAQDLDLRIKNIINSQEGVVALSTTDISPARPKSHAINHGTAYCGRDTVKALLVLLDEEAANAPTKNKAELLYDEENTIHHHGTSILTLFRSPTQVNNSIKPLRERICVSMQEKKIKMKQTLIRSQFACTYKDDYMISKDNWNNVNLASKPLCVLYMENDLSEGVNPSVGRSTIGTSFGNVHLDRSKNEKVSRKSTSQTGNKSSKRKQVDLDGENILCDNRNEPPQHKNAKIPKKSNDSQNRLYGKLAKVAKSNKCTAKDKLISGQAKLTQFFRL

T2: Recombinant Flag-tagged PARI purified from insect cells (human, UniProt Q9NWS1 1-579)
T2 sequence (looked up): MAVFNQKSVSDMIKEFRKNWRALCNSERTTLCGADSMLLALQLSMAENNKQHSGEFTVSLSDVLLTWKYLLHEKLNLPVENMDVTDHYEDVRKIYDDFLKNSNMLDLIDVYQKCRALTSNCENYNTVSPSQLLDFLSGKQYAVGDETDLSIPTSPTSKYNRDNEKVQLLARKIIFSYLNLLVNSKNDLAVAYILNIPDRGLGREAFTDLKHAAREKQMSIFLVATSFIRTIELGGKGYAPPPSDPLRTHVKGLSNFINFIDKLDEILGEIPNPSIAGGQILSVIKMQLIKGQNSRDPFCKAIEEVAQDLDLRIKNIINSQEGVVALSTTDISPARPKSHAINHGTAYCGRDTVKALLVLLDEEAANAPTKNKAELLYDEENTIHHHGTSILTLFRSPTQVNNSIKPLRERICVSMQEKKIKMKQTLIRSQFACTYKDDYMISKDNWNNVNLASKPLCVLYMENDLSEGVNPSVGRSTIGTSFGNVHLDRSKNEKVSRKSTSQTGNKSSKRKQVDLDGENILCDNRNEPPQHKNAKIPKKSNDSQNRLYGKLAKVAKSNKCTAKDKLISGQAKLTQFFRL


Legend:
[1] = biological target: T1, GST-tagged full-length PARI; assay: pull-down
[2] = biological target: T2, Recombinant Flag-tagged PARI purified …; assay: pull-down

binding result [1]	binding result [2]	Binder
binds	–	Recombinant human RAD51 expressed and purified from bacteria (natural protein, UniProt Q06609 1-339, looked up) MAMQMQLEANADTSVEEESFGPQPISRLEQCGINANDVKKLEEAGFHTVEAVAYAPKKELINIKGISEAKADKILAEAAKLVPMGFTTATEFHQRRSEIIQITTGSKELDKLLQGGIETGSITEMFGEFRTGKTQICHTLAVTCQLPIDRGGGEGKAMYIDTEGTFRPERLLAVAERYGLSGSDVLDNVAYARAFNTDHQTQLLYQASAMMVESRYALLIVDSATALYRTDYSGRGELSARQMHLARFLRMLLRLADEFGVAVVITNQVVAQVDGAAMFAADPKKPIGGNIIAHASTTRLYLRKGRGETRICKIYDSPCLPEAEAMFAINADGVGDAKD
–	binds	GST-tagged human RAD51 (natural protein, UniProt Q06609 1-339, looked up) MAMQMQLEANADTSVEEESFGPQPISRLEQCGINANDVKKLEEAGFHTVEAVAYAPKKELINIKGISEAKADKILAEAAKLVPMGFTTATEFHQRRSEIIQITTGSKELDKLLQGGIETGSITEMFGEFRTGKTQICHTLAVTCQLPIDRGGGEGKAMYIDTEGTFRPERLLAVAERYGLSGSDVLDNVAYARAFNTDHQTQLLYQASAMMVESRYALLIVDSATALYRTDYSGRGELSARQMHLARFLRMLLRLADEFGVAVVITNQVVAQVDGAAMFAADPKKPIGGNIIAHASTTRLYLRKGRGETRICKIYDSPCLPEAEAMFAINADGVGDAKD
